System: MS2 coat protein
Experiment: apparent KD of MS2 coat protein; higher = weaker reporter binding
Conditions: Eterna round: R107
Experimental: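 RNA-MaP round R107: designed RNA switches with theophylline, tryptophan, arginine or FMN aptamers are transcribed on-chip within common flanks. They are titrated with SNAP-549-labelled MS2 coat protein in RNA-MaP buffer (100 mM Tris pH 7.5, 80 mM KCl, 4 mM MgCl2), without ligand or with the indicated ligand. Median apparent KD per design.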

[1] = input ligand: theophylline 20 uM
[2] = input ligand: theophylline 2 mM
[3] = input ligand: tryptophan 2.4 mM

Row | Sequence | apparent KD of MS2 coat protein (input ligand: arginine 13.2 mM) [nM] | apparent KD of MS2 coat protein (input ligand: none) [nM] | apparent KD of MS2 coat protein [1] [nM] | apparent KD of MS2 coat protein [2] [nM] | apparent KD of MS2 coat protein [3] [nM]
1 | AAAGUUGAUGAGUUGCGUUUGUGUUCCGAAGGAGCGAGAAUUAUCUCAGGUAGGUCGCGGAACAUGAGGAUCACCCAUGUAUAAA [XArg-A 19 NuV1&2 original #dotplot2>1] | 35.3 | 36.3 | 46.2 | 41.6 | 34.3
2 | AAAUAAUCUAGUCCACAAUGUGACUCAGAUACCAGUGCAAAGCUACACCCUUGGCAGCUGGUUACAUGAGGAUCACCCAUGUCGU [theeternabot_exclusion_MS2_Theo_A_50] | 34.3 | – | 51.9 | – | 46.9
3 | AAAUAUAACUCGGCCGCCACUGACAUGAGGAUCACCCAUGUUAUAUUUUAUACAUGAGGAUCACCCAGGACCGGGAGAAUAUAAA [Jonah 1] | 61.7 | 940 | 484 | 696 | 1590
4 | AACAUGAGGAUCACCCAUGUAAUAUGGGAUACCAGAGACGAAAGUCUCCCUUGGCAGCCCAAGCUGCUCCAUACGAAAGUAUGGU [Theophylline A 16] | 50.5 | – | 43.7 | – | 64.7
5 | AACAUGAGGAUCACCCAUGUCAUGUUGGAUACCAGCCAAUAAUAAGGCCCUUGGCAGCUAUAGAUCGAUGAUCCAUGAGGAUCAC [Exclusion Theophylline A] | 27.6 | – | 49.4 | – | 33.1
6 | AACAUGAGGAUUGAUACCAGUCCAUGAGGAUCACAUGAGGAUCACCCAUGUGGAACAUGAGGCCCUUGGCAGCAGUACAACAUGA [Same State Theophylline B] | 13.8 | – | 17.2 | – | 17.3
7 | AACCAUCUCGGCGAUACCAGUGCCUACGAGUACAUGAGGAUCACCCAUGUAGGUGACCGACACCCUUGGCAGCGCGAUUGAGUCA [theeternabot_sameState_MS2_Theo_B_45] | 70.9 | – | 184 | – | 129
8 | AACGUGAACGUGGUAUACCCGUGUGCCGAAGGAGCGCCCGUAAGGGCAGGUAGGUCGCGGUCGACAUGAGGAUCACCCAUGUUUG | 39.5 | 74.6 | 84.2 | 106 | 81.6
9 | AACUGGAUCAGUGAUACCAGAGACAUGAGGAUCACCCAUGUACAUGAGGAUCACCCAUGUCUCCCUUGGCAGCACAGCAGGGAGC [Exclusion Theophylline B GF 17] | 32.8 | 70 | 70.3 | 442 | 64.1
10 | AACUGGGUUCGUGAUACCAGCUCACACAUGAGGAUCACCCAUGUAGUGGGUAAAAUGUGGAGCCCUUGGCAGCACUGUGACCACG [Esria] | 14.6 | – | 25.4 | – | 14.4
11 | AAGAAGUUUUGAUUUUUAUGAAGUAGUGAUACCAGUUAAGAAAGAGACCCUUGGCAGCGCAACAUGAGGAUCACCCAUGUAAGAA [Another radom design] | 18.9 | 17.3 | 21.1 | 19.7 | 21.9
12 | AAGACAUGAGGAUCACCCAUGUCGUCAACACGAGGACCGGUACGGCCGCCACUCGCAUGCCAAUGAGCGCAUGCGGCCUGGGUAU [Exclusion Tryp A GF4] | 8.77 | 14.8 | 18 | 13.8 | 34.3
13 | AAGACGGUCGGAAGGAGCGGUACAUGAGGAUCACCCAUGUAUUCCUGGGCAUCCGUAGUGUGCCAGGUAGGUCGCCGAUUGCGGG [XArg-B13] | 40.3 | 37.9 | 91.7 | 97.2 | 40.9
14 | AAGAGUUGACAAAAGUCAGCUCAAACCGAAGGAGCGGGAGAAAUCCCAGGUAGGUCGCGGUUACAUGAGGAUCACCCAUGUUCCU [ArgAS 6 #BothOrNeither #OpenEnded] | 68.1 | 355 | 376 | 300 | 273
15 | AAGAUACUCUGAAGGAGCGUCAUAAAACAUGAGGAUCACCCAUGUGCGCGGGUGUAAUUAUGACAGGUAGGUCGCAGAGUAUUUA [Arg B SS t2] | 424 | 179 | 515 | 601 | 442
16 | AAUAAACAUGAGGAUCACCCAUGUAUGGAAGGAGCGGUGAAUAAACCAGGUAGGUCGCCAGUGUGAGGGUCAUCUAUGUAAUAAA [Exclusion - Arginine A (Freestyle 2)] | 68.4 | 42.7 | 43.1 | 56.2 | 37.9
17 | AAUAACAUGAGGAUCACCCAUGUAAAAGAUACCAGAGUGAUGAUCCUCCCUUGGCAGCUUAAUAACGCUAUUGAUUACAAUAGCG [Mat - Same State Theophlline A - Mod of Eli - D6] | 33.5 | – | 98.7 | – | 37.2
18 | AAUAAUAGGUGAUCUUAAGUCGUACCGUAACGAGGACCGGUACGGCCGCCACUCGAACAUGAGGAUCACCCAUGUAUGUAUGAUA [whbob_SS_trypto A_f5] | 44.7 | 168 | 242 | 300 | 80.7
19 | AAUAUAUAUCACGAACUGUGGUGUAUGUUCCGAGGACCGGUACGGCCGCCACUCGCGUGGUUCCACAUGAGGAUCACCCAUGUUG [XTryp A #8] | 17.3 | 16.8 | 29.4 | 23.2 | 22.5
20 | AAUGUCGGAUCGGCCGCCACUGGUUGGCCCUGUGUACAUGAGGAUCACCCAUGUCCAUCCCAAACCAGGACCGGGAUCUUUAUGU [Xeananor] | 37.9 | – | 51.7 | 40.4 | –
21 | AAUUAUCAGUCGGCCGCCACUGACACAUGAGGAUCACCCAUGUAACUUGGGUUAAAUUUACUGAACAGGACCGGGACAAAGGCUA [JR_ExcTryptoB_Sub009] | 114 | – | 193 | 203 | –
22 | ACAAGAGGGAUGGAUACCAGCGACAUGAGGAUCACCCAUGUAUGAGGAUCAGCCAUGUUAUGCCCUUGGCAGCCACGAAGAUCAG [XXXMULLIN] | 27.1 | 25.1 | 32.8 | 104 | 21.6
23 | ACAAGGACAUGAGGAUCACCCAUGUGGGAAGGAGCGCAUAAAUAUGCAGGUAGGUCGCCCGGCGUGAUAUUUAAUAUUUUAAUAA [Exclusion - Arginine A] | 34 | 55.7 | 79.4 | 73.5 | 60.2
24 | ACACAAUACAUGAGGAUCACCCAUGUAUAACGAGGACCGGUACGGCCGCCACUCGAAUACUGUAAUCCUCGGAAUAUUAUGUGAA [JR_ExcTryptA_Sub003] | 32.9 | – | 56.7 | 60.5 | –
25 | ACACGGCAUGAUGGAUCACCUCGUGAAUCACGAGGACCGGUACGGCCGCCACUCGAAAACCGUGACCUGUACGAAAAGUGCAGGA | 36 | 53 | 254 | 758 | 38.8
26 | ACAUGAGGAUCACCCAUGUAAAUAACGGAAGGAGCGUGCAAAAGCACAGGUAGGUCGCCGAUAUAAAUAUUGGGUAUUAUAUUUU [AstrosExyArgA#3] | 30.4 | 30.4 | 40.3 | 31.7 | 29.6
27 | ACAUGAGGAUCACCCAUGUAACGUCUUGAUACCAGACGAGAAGUAGUCCCUUGGCAGCAAAUACGUGAGGGUCACACAUGUGUAA [vvvmullin] | 13.8 | – | 34.4 | – | 22.1
28 | ACAUGAGGAUCACCCAUGUAAUCAUCAGAAGGAGCGUGGAAUAACACAGGUAGGUCGCUGAUGUUAUGUUAAAAUGGUUCGUGAA [JR_ExcArginiA_Sub002] | 18.8 | 19.1 | 23.7 | 17.3 | 22.5

Source: the supplement of paper PMC9170038
